For experiment [1], the target named is T1, recombinant human IL-4 (human, UniProt P05112 25-153).
T1 sequence (looked up): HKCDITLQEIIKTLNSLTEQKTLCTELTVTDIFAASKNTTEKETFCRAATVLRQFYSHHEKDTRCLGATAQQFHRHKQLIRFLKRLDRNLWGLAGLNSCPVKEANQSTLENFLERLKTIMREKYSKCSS
Kind of experiment: cell-based or functional assay.

In experiment [2] the target is T1, recombinant human IL-4. As to the kind of experiment: SPR Biacore 3000, ratio of KD. The source says:
(§1) Surface plasmon resonance technology on a Biacore 3000 (GE Healthcare) was used for detailed kinetic characterisation of purified anibodics. A capture assay using a species specific antibody (e.g. human-Fc specific MAB 1302, Chemicon) for capture and orientation of the investigated antibodies was used. The capture antibody was immobilized via primary amine groups (10000 RU) on a research grade CM5 chip (GE Life Sciences) using standard procedures. The analysed antibody was captured with an adjusted RU value that would result in maximal analyte binding of 30 RU at a flow rate of 10 μl/min. Binding kinetics were measured against recombinant human IL-4 and IL-13 over a concentration range between 0 to 50 nM in HBS EP (10 mM HEPES pH 7.4, 150 mM NaCl, 3 mM EDTA, 0.005% Surfactant P20) at a flow rate of 30 μl/min. Chip surfaces were regenerated with 10 mM glycine pH2.5. Kinetic parameters were analysed and calculated in the BIAevaluation program package using a flow cell without captured antibody as reference. To investigate additive binding of both antigens, a wizard-driven co-inject method has been applied in which one antigen was injected immediately followed by the antigen mix of IL-13/IL-4.
For orientation: SPR reads the build-up and loss of mass on a sensor chip optically.

For experiment [3], the target named is T1, recombinant human IL-4. As to the kind of experiment: SPR Biacore 3000, antibody captured, cytokine in solution.
From the text: as §1

Experiment [4] concerns the target T2, recombinant human IL-13 (human, UniProt P35225 35-146, limits assumed).
T2 construct: Bought reagent; also called wild type IL-13
As to the kind of experiment: SPR Biacore 3000, ratio of KD.
From the text: as §1

Experiment [5] concerns the target T2, recombinant human IL-13. Kind of experiment: cell-based or functional assay.
Experiment [6] deals with T2, recombinant human IL-13. As to the kind of experiment: SPR Biacore 3000, antibody captured, cytokine in solution.
From the text: as §1

For experiment [7], the target named is T1, recombinant human IL-4. The experiment is described as above.
From the text: as §1
Binding and neutralization activity assays were performed as described in the previous Examples.
This is another data set of the same source.

Experiment [8] has as its target T1, recombinant human IL-4. As to the kind of experiment: cell-based or functional assay. The source holds these as a separate data set.
Experiment [9] concerns the target human IL-13 R112Q variant (human) (UniProt P35225). As to the kind of experiment: SPR Biacore 3000, antibody captured, cytokine in solution.

Like-named read-outs stand apart in the source and are kept apart here.

Chain of human IL-13 R112Q variant (human) (P35225 33-146, stated change not applied): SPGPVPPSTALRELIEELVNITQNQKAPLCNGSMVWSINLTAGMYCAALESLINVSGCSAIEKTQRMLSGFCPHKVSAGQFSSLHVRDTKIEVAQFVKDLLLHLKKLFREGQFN
T2 sequence (P35225 35-146 limits assumed): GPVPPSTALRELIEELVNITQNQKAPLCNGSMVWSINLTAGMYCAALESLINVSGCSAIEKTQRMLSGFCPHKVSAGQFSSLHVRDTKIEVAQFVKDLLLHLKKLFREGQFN

B1: Hu8D4-8 VL1 × VH1 (antibody, V domains shown)
VH: QVQLQQSGPELVKPGASVKISCKASGYSFTSYWIHWIKQRPGQGLEWIGMIDPSDGETRLNQRFQGRATLTVDESTSTAYMQLRSPTSEDSAVYYCTRLKEYGNYDSFYFDVWGAGTLVTVSS
VL: DIQMTQSPASLSVSVGDTITLTCHASQNIDVWLSWFQQKPGNIPKLLIYKASNLHTGVPSRFSGSGSGTGFTLTISSLQPEDIATYYCQQAHSYPFTFGGGTKLEIKR
notes: Expressed as a whole antibody, purified on Protein A; also called hu8D4-8 VL1xVH1; humanized 8D4-8 VL1xVH1
As to B1, the “IC50, inhibition of IL-4 induced TF-1 cell proliferation” value in experiment [1] was 41 pM. Also, in experiment [2], the “fold higher affinity than chimeric 8D4-8” value amounted to 2 fold and the “fold higher affinity than the original murine 8D4-8” value stood at 11 fold. Further, in [3], the Kd amounted to 3.29 pM, the off-rate (koff) stood at 0.000155 s⁻¹ and the kon was 4.72e+07 M⁻¹ s⁻¹.

B2: huB-B13 VL3 × VH2 (antibody, V domains shown)
VH: EVQLKESGPGLVAPGGSLSITCTVSGFSLTDSSINWVRQPPGKGLEWLGMIWGDGRIDYADALKSRLSISKDSSKSQVFLEMTSLRTDDTATYYCARDGYFPYAMDFWGQGTSVTVSS
VL: DIVLTQSPASLAVSLGQRATISCRASESVDSYGQSYMHWYQQKAGQPPKLLIYLASNLESGVPARFSGSGSRTDFTLTIDPVQAEDAATYYCQQNAEDSRTFGGGTKLEIK
notes: Expressed as a whole antibody, purified on Protein A; also called huB-B13 VL3xVH2; humanized B-B13 VL3xVH2
Turning to B2, in [4], the “fold higher affinity than chimeric B-B13” value came to 6 fold and the “fold higher affinity than the original murine B-B13” value came to 13 fold. Moreover, the “IC50, inhibition of IL-13 induced TF-1 cell proliferation” value in experiment [5] was found to be 3200 pM. Also, in experiment [6], the Kd was 43.9 pM, the koff worked out at 0.000112 s⁻¹ and the kon stood at 2.55e+06 M⁻¹ s⁻¹.

B3: huTBTI3_2_1 (bispecific antibody, IgG4)
VH: EVQLKESGPGLVAPGGSLSITCTVSGFSLTDSSINWVRQPPGKGLEWLGMIWGDGRIDYADALKSRLSISKDSSKSQVFLEMTSLRTDDTATYYCARDGYFPYAMDFWGQGTSVTVSSGGGGSGGGGSQVQLQQSGPELVKPGASVKISCKASGYSFTSYWIHWIKQRPGQGLEWIGMIDPSDGETRLNQRFQGRATLTVDESTSTAYMQLRSPTSEDSAVYYCTRLKEYGNYDSFYFDVWGAGTLVTVSS
VL: DIVLTQSPASLAVSLGQRATISCRASESVDSYGQSYMHWYQQKAGQPPKLLIYLASNLESGVPARFSGSGSRTDFTLTIDPVQAEDAATYYCQQNAEDSRTFGGGTKLEIKGGGGSGGGGSDIQMTQSPASLSVSVGDTITLTCHASQNIDVWLSWFQQKPGNIPKLLIYKASNLHTGVPSRFSGSGSGTGFTLTISSLQPEDIATYYCQQAHSYPFTFGGGTKLEIK
notes: Dual variable domain IgG4: B-B13 VL3 × VH2 outer, 8D4-8 VL1 × VH1 inner, (G4S)2 linkers; heterotetramer of two heavy and two light chains; copies: 2 + 2
Take B3: in experiment [7], the Kd stood at 34.7 pM, the koff worked out at 0.000139 s⁻¹ and the kon turned out to be 4e+06 M⁻¹ s⁻¹. Further, in [8], the “IC50 (nM) in IL-4 assay (TF-1 cell proliferation)” value came out at 0.32 nM. Moreover, in experiment [9], the Kd stood at 211 pM, the koff came out at 0.0002 s⁻¹ and the kon worked out at 948000 M⁻¹ s⁻¹.

For orientation: Kd means the concentration at which binding is half-saturated. What is called koff is a measure of how fast the partners let go of each other. One may read the kon as the rate constant with which the complex forms.

The values are drawn from patent US20130236462A1 (Sanofi, published 2013).
